Results taken from PMC3325269, “Non-Agonistic Bivalent Antibodies That Promote c-MET Degradation and Inhibit Tumor Growth and Others Specific for Tumor Related c-MET” (PLoS ONE, 2012).
Blank lines part the entries; values can stand above or below the binder they belong to.

Legend:
[1] = molecular target: T1, c-MET on the surface of A549 lung cancer cells (Homo sapiens (A549), UniProt P08581); test: flow cytometry on cells; A549 cells, 10 µg/ml of each LMH antibody in 1% HSA/PBS, 1 h at 4°C; anti-mouse IgG-PE secondary; settings: one partner purified
T1 construct: c-MET, the receptor for hepatocyte growth factor/scatter factor, as expressed on cells; also called surface c-MET; c-MET receptor; source: endogenous, on A549 cells (U87MG cells in one down-regulation assay)

[2] = molecular target: T2, mature c-MET (disulphide-linked α/β heterodimer) (Homo sapiens (A549), UniProt P08581); test: co-IP; immunoprecipitation of endogenous c-MET from A549 lysates (Triton X-100 lysis buffer) with the LMH antibody; membranes blotted with mAb 25H2; settings: one partner purified
T2 construct: c-MET α-chain, extracellular 50 kDa product of furin cleavage of the precursor; c-MET β-chain, extracellular/intracellular 145 kDa product of furin cleavage of the precursor, contains the TK domain; Detected in the immunoprecipitates by the 145 kDa β-chain band (mAb 25H2); also called mature receptor; source: endogenous, A549 lysate

[3] = molecular target: T3, c-MET extracellular domain (Homo sapiens, UniProt P08581); test: SPR; BIAcore; c-MET extracellular domain immobilized, different concentrations of purified LMH antibodies (intact IgG); settings: both partners purified
T3 construct: c-MET extracellular domain; also called immobilized c-MET extracellular domain
T3 sequence (P08581 25-932): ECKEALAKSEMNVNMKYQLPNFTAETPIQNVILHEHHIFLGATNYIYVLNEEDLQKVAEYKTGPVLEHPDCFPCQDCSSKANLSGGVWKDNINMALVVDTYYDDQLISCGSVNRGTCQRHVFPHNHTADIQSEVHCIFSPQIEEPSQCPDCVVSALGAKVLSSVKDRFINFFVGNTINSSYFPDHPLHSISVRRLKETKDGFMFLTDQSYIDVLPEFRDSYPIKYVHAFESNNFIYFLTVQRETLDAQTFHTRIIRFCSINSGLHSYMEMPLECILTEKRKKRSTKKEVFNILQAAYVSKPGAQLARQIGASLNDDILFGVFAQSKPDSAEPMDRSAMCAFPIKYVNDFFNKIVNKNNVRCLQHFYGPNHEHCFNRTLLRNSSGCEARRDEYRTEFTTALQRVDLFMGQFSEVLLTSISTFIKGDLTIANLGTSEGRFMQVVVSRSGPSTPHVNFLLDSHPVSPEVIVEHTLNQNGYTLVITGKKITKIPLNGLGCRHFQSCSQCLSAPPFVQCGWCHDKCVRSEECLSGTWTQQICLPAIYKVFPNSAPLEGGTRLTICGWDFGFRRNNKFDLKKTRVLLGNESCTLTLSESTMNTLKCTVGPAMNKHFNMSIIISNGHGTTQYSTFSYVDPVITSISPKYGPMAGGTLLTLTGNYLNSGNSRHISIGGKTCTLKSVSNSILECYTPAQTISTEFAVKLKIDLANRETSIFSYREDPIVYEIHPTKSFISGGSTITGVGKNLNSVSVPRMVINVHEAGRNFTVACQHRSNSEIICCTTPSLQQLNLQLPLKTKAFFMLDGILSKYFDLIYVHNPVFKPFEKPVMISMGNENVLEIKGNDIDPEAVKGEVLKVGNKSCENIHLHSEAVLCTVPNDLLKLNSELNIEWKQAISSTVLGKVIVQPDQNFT

T1 sequence (P08581 25-1390): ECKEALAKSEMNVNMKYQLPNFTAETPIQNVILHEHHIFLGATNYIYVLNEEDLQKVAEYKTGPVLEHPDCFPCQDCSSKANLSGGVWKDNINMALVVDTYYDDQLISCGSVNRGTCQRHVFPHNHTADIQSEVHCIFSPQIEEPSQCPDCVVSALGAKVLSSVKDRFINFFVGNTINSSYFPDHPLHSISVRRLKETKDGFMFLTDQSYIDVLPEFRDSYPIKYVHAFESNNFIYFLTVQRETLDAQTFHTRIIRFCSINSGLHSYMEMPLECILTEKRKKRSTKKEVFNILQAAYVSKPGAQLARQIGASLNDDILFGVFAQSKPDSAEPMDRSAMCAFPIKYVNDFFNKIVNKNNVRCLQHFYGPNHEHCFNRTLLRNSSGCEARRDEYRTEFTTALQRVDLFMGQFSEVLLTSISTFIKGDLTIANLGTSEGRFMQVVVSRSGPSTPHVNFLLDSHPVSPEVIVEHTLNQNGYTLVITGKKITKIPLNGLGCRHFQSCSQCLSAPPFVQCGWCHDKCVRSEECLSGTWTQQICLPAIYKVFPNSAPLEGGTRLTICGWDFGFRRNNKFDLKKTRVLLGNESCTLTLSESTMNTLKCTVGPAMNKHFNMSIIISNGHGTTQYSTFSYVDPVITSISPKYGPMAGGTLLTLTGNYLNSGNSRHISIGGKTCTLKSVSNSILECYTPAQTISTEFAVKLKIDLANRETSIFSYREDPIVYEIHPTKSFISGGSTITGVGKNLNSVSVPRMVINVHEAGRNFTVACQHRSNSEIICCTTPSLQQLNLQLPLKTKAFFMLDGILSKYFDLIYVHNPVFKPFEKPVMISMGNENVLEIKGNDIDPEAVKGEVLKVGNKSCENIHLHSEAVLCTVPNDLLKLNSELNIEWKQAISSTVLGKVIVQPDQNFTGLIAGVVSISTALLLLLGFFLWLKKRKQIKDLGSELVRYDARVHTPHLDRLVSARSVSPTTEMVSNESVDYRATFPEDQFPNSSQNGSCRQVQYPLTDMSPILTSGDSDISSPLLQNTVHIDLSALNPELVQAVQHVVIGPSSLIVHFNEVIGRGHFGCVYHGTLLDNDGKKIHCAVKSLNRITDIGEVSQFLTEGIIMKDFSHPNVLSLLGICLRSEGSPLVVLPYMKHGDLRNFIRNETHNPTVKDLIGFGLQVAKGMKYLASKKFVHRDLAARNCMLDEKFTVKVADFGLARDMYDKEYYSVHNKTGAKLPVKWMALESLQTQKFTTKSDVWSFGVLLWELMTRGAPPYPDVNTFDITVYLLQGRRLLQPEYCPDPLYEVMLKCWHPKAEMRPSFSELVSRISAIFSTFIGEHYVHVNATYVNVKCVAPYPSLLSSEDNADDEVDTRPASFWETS

binding result [1]: binds
binding result [2]: binds
B1: LMH 85 (antibody, V domains shown)
VH: QVQLQQSGAELAKPGASVKMSCKASGYTFIIYWIHWIKQRPGQGLEWIGYINPSNDYTEYNQKFKDKATLTADKSSNTAFMQLSSLTSEDSAVYYCARDSYDYDDGAYAMDYWGQGTSVTVSS
VL: QIVLSQSPAILSASPGEKVTMTCRASSGVNYMHWYQQKPGSSPKPWIYATSNLASGVPARFSGSGSGTSYSLTISRVEAEDAATYYCQQWISHPFTFGSGTKLEIK
notes: VH domain; heavy chain constant region of a mouse IgG; VL domain; light chain constant region of a mouse antibody; Intact bivalent mouse monoclonal antibody, agonist of c-MET; also called LMH 85 antibody; mAb LMH 85; source: clonal supernatants in the screening ELISA; copies: 2 + 2

Kd [3]: 2.6 nM
B2: LMH 87 (antibody, V domains shown)
VH: QVQLQQSGPELVKSGASVKMSCKASGNTLKDDHVHWVKQRPGQGLEWIGWIYPGGGRTRYNEKFKGKTTLTADKPSSTVNMLLSSLTSEDSAIYFCTNLVFDVWGAGTTVTVSS
VL: DIVMTQAAPSVPVTPGESVSISCRSSKSLLHSNGNTYLYWFLQRPGQSPQVLIYRMSNLASGVPDRFSGSGSGTAFTLRIRRVEAEDVGVYYCMQNLEYPFTFGGGTKLEIK
notes: VH domain; heavy chain constant region of a mouse IgG; VL (Vk) domain; light chain constant region of a mouse antibody (the methods call the variable segment Vk); Intact bivalent mouse monoclonal antibody; also called LMH 87 antibody; mAb LMH 87; source: clonal supernatants in the screening ELISA; copies: 2 + 2
